# Assay results: patent publication US20070202079A1, “Therapeutic compositions and methods useful in modulating protein tyrosine phosphatases” (priority 2006, published 2007)
# Numbering of substitutions follows the chain as printed.
# T1: Synthetic phosphotyrosine peptide Arg-Arg-Leu-Ile-Glu-Asp-Ala-Gle-Tyr-Ala-Ala-Arg-Gly (SEQ ID NO: 3), tyrosine phosphorylated
# T1 sequence: RRLIEDAEYAARG
# T2: MKP1 (Homo sapiens, UniProt P28562)
# T2 construct: a pGEX construct containing the coding region of MKP1 cDNA derived by RT-PCR; made in house; host or cells: DH5a bacteria (E. coli)
# T2 sequence (P28562 1-367): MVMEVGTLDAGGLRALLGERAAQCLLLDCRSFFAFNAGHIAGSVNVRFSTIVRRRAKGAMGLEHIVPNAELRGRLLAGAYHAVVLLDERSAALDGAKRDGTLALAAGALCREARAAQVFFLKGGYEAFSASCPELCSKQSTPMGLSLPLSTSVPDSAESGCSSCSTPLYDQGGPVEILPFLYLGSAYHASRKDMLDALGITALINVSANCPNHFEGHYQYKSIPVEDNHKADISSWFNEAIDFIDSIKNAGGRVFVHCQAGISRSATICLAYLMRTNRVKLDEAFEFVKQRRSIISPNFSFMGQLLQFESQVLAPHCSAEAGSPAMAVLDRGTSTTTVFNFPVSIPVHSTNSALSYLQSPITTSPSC
# T3: Synthetic phosphotyrosine peptide Arg-Arg-Leu-Ile-Glu-Asp-Ala-Gle-Tyr-Ala-Ala-Arg-Gly (SEQ ID NO: 3), tyrosine phosphorylated (not fully specified)
# T3 chain: RRLIEDAEYAARG
# B1: GST fusion protein of PRL-1R86 (recombinant PRL-1 protein containing R86) (protein)
# chain: MARMNRPAPVEVTYKNMRFLITHNPTNATLNKFIEELKKYGVTTIVRVCEATYDTTLVEKEGIHVLDWPFDDGAPPSNQIVDDWLRLVKIKFREEPGCCIAVHCVAGLGRAPVLVALALIEGGMKYEDAVQFIRQKRRGAFNSKQLLYLEKYRPKMRLRFKDSNGHRNNCCIQ
# B2: GST fusion protein of PRL-1 (recombinant wild type PRL-1) (protein)
# chain: B1 chain with R86S
# B3: Flag-PRL-1 (human PRL-1 tagged at the N-terminus with the Flag epitope) (protein)
# chain: B1 chain with R86S
# B4: Flag-PRL-1R86 (Flag-tagged PRL-1 R86 mutant) (protein)
# chain: B1 chain
# How the values were obtained:
# [1] = test system: T1, Synthetic phosphotyrosine peptide Arg-Arg-Leu-Ile-Glu-Asp-Ala-Gle-Tyr-Ala-Ala-Arg-Gly (SEQ ID NO: 3), tyrosine phosphorylated
# GSTm8 = assay: in vitro PTPase assay, GSTm8; assay type: biochemical; settings: 3-4 μg/ml or 10-100 μg/ml
# Text: (§1) In vitro PTPase assays were used to determine the effects of levamisole (Sigma), pentamidine (American Pharmaceutical Partners, Inc.), and ketoconazole (Sigma) on recombinant PTPases, following established procedures (Pathak et al., J. Immunol. 167, 3391 (2001); Pathak et al., Leukemia 16, 2285 (2002), Yi et al., J. Immunol. 169, 5978 (2002)) using a synthetic phosphotyrosine peptide or DiFMUP as the substrate as detailed above in section I.A.2.
# SHP-1 = target: T4, SHP-1 (Mus musculus, UniProt P29351); assay: in vitro PTPase assay, GST/SHP-1; assay type: biochemical
# T4 construct: made in house
# Method: In vitro PTPase activities were measured using the commercial protein tyrosine phosphatase assay kit (Upstate Biotechnology, Inc. (“UBI”)) following established procedure known to one of skill in the art. […] Briefly, 0.01 μg of GST/PTPase fusion proteins was incubated in 50 μl of Tris buffer (10 mM Tris, pH 7.4) containing different concentrations of inhibitors or chemicals (0-1,000 μg/ml) at 22° C. for 10 minutes, followed by addition of 0.2 mM of the phosphotyrosine peptide and incubation at 22° […] 100 μl of Malachite Green solution was added and incubated for 5 minutes, and the absorbance at 660 nm was measured after 5 minutes.
# To assess the reversibility of inhibition of SHP-1 by PTPase inhibitors, GST/SHP-1 fusion protein bound on glutathione beads were pre-incubated in cold Tris buffer or Tris buffer containing the PTPase inhibitors at 4° C. for 30 minutes. The beads were then either subjected to in vitro PTPase assays or washed 3 times in Tris buffer then subjected to in vitro PTPase assays.
# Briefly, individual PTPases (0.1 μg/reaction) in 50 μL of PTPase buffer (50 mM Tris, pH 7.4) were incubated at 22° C. for 10 minutes or as indicated in the absence or presence of inhibitory compounds. Substrates (0.2 mM phosphotyrosine peptide) were then added and allowed to react at 22° C. for 18 hrs. PTPase activity of individual reactions was measured by adding 100 μL of malachite green solution (UBI) and then quantifying the amounts of free phosphate cleaved by the PTPase from the peptide substrate by spectrometry (OD660 nm). […] Relative PTPase activities were calculated based on the formula: (PTPase activity in the presence of an inhibitory compound/PTPase activity in the absence of the compound)× 100%. To assess the reversibility of PTPase inhibition, GST fusion proteins of the PTPases bound on glutathione beads (Pharmacia) were pre-incubated with cold Tris buffer (50 mM Tris, pH 7.0) or Tris buffer containing the inhibitor at 4° C. for 30 minutes. The beads were then washed three times in cold Tris buffer or not washed prior to subjecting to in vitro PTPase assays.
# MKP1 = target: T2, MKP1; assay: in vitro PTPase assay, GST/MKP1; assay type: biochemical; settings: levamisole, pentamidine, ketoconazole
# Method: In vitro PTPase activities were measured using the commercial protein tyrosine phosphatase assay kit (Upstate Biotechnology, Inc. (“UBI”)) following established procedure known to one of skill in the art. This assay measures the in vitro dephosphorylation of a synthetic phosphotyrosine peptide of the sequence Arg-Arg-Leu-Ile-Glu-Asp-Ala-Gle-T- -yr-Ala-Ala-Arg-Gly, wherein the tyrosine is phosphorylated (SEQ ID NO: 3). Briefly, 0.01 μg of GST/PTPase fusion proteins was incubated in 50 μl of Tris buffer (10 mM Tris, pH 7.4) containing different concentrations of inhibitors or chemicals (0-1,000 μg/ml) at 22° C. for 10 minutes, followed by addition of 0.2 mM of the phosphotyrosine peptide and incubation at 22° C. for 18 hours. 100 μl of Malachite Green solution was added and incubated for 5 minutes, and the absorbance at 660 nm was measured after 5 minutes.
# as §1
# PRL-3 = target: T5, PRL-3 (Homo sapiens, UniProt O75365); assay: in vitro PTPase assay, recombinant PRL-3; assay type: biochemical; settings: DiFMUP substrate
# T5 construct: cDNAs of human PRL-1, PRL-2 and PRL-3 coding region were derived by RT-PCR; made in house; host or cells: DH5a bacteria (E. coli)
# Text: Sodium stibogluconate, suramin, sodium orthovanadate and GST fusion protein of SHP-1 have been described previously (Pathak et al., J. Immunol. 167, 3391 (2001)). Meglumine antimonate was obtained from Aventis. cDNAs of human PRL-1, PRL-2 and PRL-3 coding region were derived by RT-PCR from H9 cells (Safai, et al., Lancet 1, 1438 (1984)) and inserted in frame into the pGEX vector. cDNA of PRL-1R86 was generated by recombinant DNA technique using PRL-1 cDNA as template following established procedures (Jiao, et al., Mol. Cell. Biol. 16, 6985 (1996)). GST fusion proteins of the PRL phosphatases were prepared from DH5a bacteria transformed with the pGEX fusion protein constructs as described previously (Yi, et al., Mol. Cell. Biol. 12, 836 (1992)). cDNAs encoding the PRLs tagged at the N-termini with the Flag epitope (Castrucci, et al., J. Virol. 66, 4647 (1992)) were generated via recombinant DNA technique, sequenced to confirm their identities and cloned into the pBabepuro vector (Yang, et al., Blood 91, 3746 (1998)). Anti-Flag monoclonal antibody (M2, Sigma) was purchased from a commercial source. A synthetic phosphotyrosine peptide (Arg-Arg-Leu-Ile-Glu-Asp-Ala-Gle-Tyr-Al- -a-Ala-Arg-Gly (SEQ ID NO: 3), wherein the tyrosine is phosphorylated; UBI) and DiFMUP (6, 8-difluoro-4-methylumbelliferyl phosphate, Molecular Probes) were purchased as substrates for PTPase assays.
# In vitro PTPase assays were used to determine the effects of compounds on recombinant PTPases, following established procedures using a synthetic phosphotyrosine peptide or DiFMUP as the substrate (Pathak et al., J. Immunol. 167, 3391 (2001)). Briefly, individual PTPases (0.1 μg/reaction) in 50 μL of PTPase buffer (50 mM Tris, pH 7.4) were incubated at 22° C. for 10 minutes or as indicated in the absence or presence of inhibitory compounds. Substrates (0.2 mM phosphotyrosine peptide) were then added and allowed to react at 22° C. for 18 hrs. PTPase activity of individual reactions was measured by adding 100 μL of malachite green solution (UBI) and then quantifying the amounts of free phosphate cleaved by the PTPase from the peptide substrate by spectrometry (OD660 nm). PTPase assays using DiFMUP as a substrate were conducted following a previously described procedure (Matter, et al., Biochem. Biophys. Res. Comm. 283, 1061 (2001)). Relative PTPase activities were calculated based on the formula: (PTPase activity in the presence of an inhibitory compound/PTPase activity in the absence of the compound)× 100%. To assess the reversibility of PTPase inhibition, GST fusion proteins of the PTPases bound on glutathione beads (Pharmacia) were pre-incubated with cold Tris buffer (50 mM Tris, pH 7.0) or Tris buffer containing the inhibitor at 4° C. for 30 minutes. The beads were then washed three times in cold Tris buffer or not washed prior to subjecting to in vitro PTPase assays.
# [2] = target: T3, Synthetic phosphotyrosine peptide …
# T4 sequence (P29351 whole entry): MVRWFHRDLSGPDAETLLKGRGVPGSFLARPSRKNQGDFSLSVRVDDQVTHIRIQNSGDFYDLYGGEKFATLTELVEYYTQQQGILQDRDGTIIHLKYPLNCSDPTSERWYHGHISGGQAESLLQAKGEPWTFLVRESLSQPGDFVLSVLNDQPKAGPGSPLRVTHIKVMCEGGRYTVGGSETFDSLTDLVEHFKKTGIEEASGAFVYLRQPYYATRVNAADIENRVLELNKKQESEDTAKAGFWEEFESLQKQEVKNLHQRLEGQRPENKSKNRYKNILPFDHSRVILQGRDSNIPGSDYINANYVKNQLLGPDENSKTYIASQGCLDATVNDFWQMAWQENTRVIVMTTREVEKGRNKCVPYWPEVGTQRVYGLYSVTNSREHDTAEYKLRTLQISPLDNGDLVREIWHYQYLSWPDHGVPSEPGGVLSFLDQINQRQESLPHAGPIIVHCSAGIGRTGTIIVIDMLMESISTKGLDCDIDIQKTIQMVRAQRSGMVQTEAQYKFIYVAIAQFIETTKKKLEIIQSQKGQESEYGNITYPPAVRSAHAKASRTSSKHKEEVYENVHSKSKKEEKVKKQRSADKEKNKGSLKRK
# T5 sequence (O75365 whole entry): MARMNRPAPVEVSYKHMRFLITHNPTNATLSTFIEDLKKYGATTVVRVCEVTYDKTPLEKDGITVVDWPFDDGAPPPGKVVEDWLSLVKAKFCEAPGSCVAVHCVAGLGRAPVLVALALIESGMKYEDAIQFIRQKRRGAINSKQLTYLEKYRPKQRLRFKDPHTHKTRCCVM
molecule,measurement,setting,value
GST fusion protein of protein tyrosine phosphatase 1B (PTP1B),PTPase activities against the peptide substrate (660 nm absorbance above background),[1],660 nm absorbance approximately 0.6 above background (0.03)
c1ccc([C@H]2CN3CCSC3=N2)cc1 [levamisole],inhibitory activity against GSTm8,GSTm8,no obvious inhibitory activity
same,inhibitory activity against SHP-1,SHP-1; 3-4 μg/ml or 10-100 μg/ml,no obvious inhibitory activity
same,inhibition of MKP1,MKP1,substantial inhibition
Cc1ccc(C(=O)Nc2ccc(S(=O)(=O)O)c3cc(S(=O)(=O)O)cc(S(=O)(=O)O)c23)cc1NC(=O)c1cccc(NC(=O)Nc2cccc(C(=O)Nc3cc(C(=O)Nc4ccc(S(=O)(=O)O)c5cc(S(=O)(=O)O)cc(S(=O)(=O)O)c45)ccc3C)c2)c1 [Suramin],inhibition of PRL-3 compared with sodium stibogluconate,PRL-3,less effective
same,inhibition of SHP-1 compared with sodium stibogluconate,SHP-1; comparable conditions,less effective
same,inhibition of GST/SHP-1 after washing (reversibility),"SHP-1; pre-incubated 30 min at 4 °C, beads washed 3 times",almost completely removed by the washing process
GST fusion protein of SHP-1,PTPase activities against the peptide substrate (660 nm absorbance above background),[1],660 nm absorbance approximately 0.6 above background (0.03)
[Na+].[Na+].[Na+].[O]=[V]([O-])([O-])[O-] [sodium orthovanadate],inhibition of PRL-3 compared with sodium stibogluconate,PRL-3,less effective
GST fusion protein of SHP-2,PTPase activities against the peptide substrate (660 nm absorbance above background),[1],660 nm absorbance approximately 0.6 above background (0.03)
GST fusion protein of mitogen-activated protein kinase phosphatase 1 (MKP1),PTPase activities against the peptide substrate (660 nm absorbance above background),[1],660 nm absorbance approximately 0.6 above background (0.03)
B1,in vitro PTPase activity,[2],showed in vitro PTPase activity similar to that of wild type PRL-1
B2,in vitro PTPase activity,[2],showed in vitro PTPase activity similar to that of wild type PRL-1
B3,PTPase activity of anti-Flag immunocomplexes,[2],a markedly higher PTPase activity (about 23 folds) over that of control transfectants
same,phosphatase activities of anti-Flag immunocomplexes,[2],showed phosphatase activities well above the background activity of the vector control cells
B4,phosphatase activities of anti-Flag immunocomplexes,[2],showed phosphatase activities well above the background activity of the vector control cells
